From patent US10398755B2, “Clusterin pharmaceuticals and treatment methods using the same” (UNIVERSITY OF SOUTHERN CALIFORNIA, priority 2009, dated 2019)

Experiments:
[1] = molecular target: T1, pro-MMP-9, MMP-9, MMP-9-ΔC (Mus musculus, UniProt P41245); test: In vitro protein binding assay (CLU-His pull-down, gelatin zymography), MMP-9 forms
T1 construct: mixture of 30-100 ng of pro-MMP-9, MMP-9, and MMP-9-ΔC; pro-MMP-9, propeptide-cleaved MMP-9 (MMP-9), and MMP-9 with both propeptide and C-terminal region cleaved (MMP-9-ΔC); MMP-9 with both propeptide and C-terminal region cleaved (MMP-9-ΔC); purchased R&D Systems; host or cells: mouse myeloma cell line (NSO)
Method: (§1) (A) Recombinant proteins, Pro-MMP-9, MMP-9, MMP-9-ΔC, CLU-His were incubated together, and bound to agarose beads coupled or uncoupled with Anti-(His)6 antibody in two different binding buffers containing Brij 35 concentrations, 0.04% or 0.002%. MMPs bound to the beads were obtained by washing with the corresponding binding buffer to resolve on gelatin zymography. Three different volumes of each sample were loaded to compare the relative density. (B) Pro-MMP-9 bound to CLU coupled to agarose beads, prepared as in (A), was incubated in the presence or absence of APMA for 1 h at RT, prior to separation of beads (B) and supernatant (S) fractions, which were resolved by zymography. Arrow indicates MMP-9 processed by APMA.
(§2) A mixture of MMP-2, MMP-9, and C-terminal truncated MMP-9 (9-ΔC) was incubated with His-tagged CLU, used in a pull-down assay and resolved on a gelatin zymography gel. The input and bound samples were loaded in a series of dilution.
(§3) To make various processed forms of MMPs, pro-MMPs were incubated with 1 mM APMA in TSCB buffer at 37° C. for 4 h to make C-terminal truncated processed MMP-9 (MMP-9-ΔC) [Murphy, 1995]. CLU-His (2.5 μg) was incubated with mixture of 30-100 ng of pro-MMP-9, MMP-9, and MMP-9-ΔC, in the TSCB buffer with 0.002 or 0.04% Brij 35 for 1 h at 4° C. followed by additional incubation for 1.5 h with anti-His tag antibody-conjugated agarose beads. The beads were washed three times with the binding buffer, and dissolved in 1×SDS sample loading buffer. Relative amounts of bound MMPs were assessed on the gelatin zymography. In order to perform CLU binding domain analysis, pro-MMP-9 bound to CLU-coupled beads was prepared, as described above, and then divided into two aliquots. They were incubated with and without 1 mM APMA at RT for 1 h in TSCB buffer on the rotator. The beads (B) were spun down and solution (S) was separated. The beads were washed with TSCB and resuspended in SDS sample loading buffer. Equivalent volume of S and B fraction were subjected to gelatin zymography.
(§4) Next, we tested the interaction of secreted CLU using mouse recombinant proteins. We used purified recombinant proteins of MMP-2, MMP-9, and CLU that were secreted from a mouse myeloma cell line (NSO). All of the proteins were purchased from R&D Systems. A mixture of MMP-2, MMP-9, and C-terminal truncated MMP-9 (9-ΔC) was incubated with His-tagged CLU, and subjected to the pull-down assay, using 150 mM NaCl-containing binding buffer and anti-His tag antibody resins. Portions of the input samples (Input) and proteins bound to the antibody (Bound) were resolved on the gelatin zymography gel.
(§5) The recombinant CLU contains a (His)6-Tag at the C-terminus of the protein, which was used for pull-down experiments with anti-His tag antibody beads. It was previously reported that CLU also binds to MT6-MMP/mmp-25 and that the hemopexin domain in the MMP C-terminal region is required for their interaction (Matsuda et al., 2003). To use as an internal control for the binding experiment, we removed part of MMP-9 (MMP-9-ΔC) by promoting self-processing by APMA (4-aminophenylmercuric acetate) treatment. For the in vitro binding assay we mixed MMP-2, MMP-9, and MMP-9-ΔC (FIG. 7).
(§6) Since different detergent concentrations affected the extent of inhibition of MMP-9 activity by CLU, we tested whether detergents may influence the binding affinity of CLU for MMP-9. To test this possibility, CLU pull down assay was performed. […]

[2] = system: pro-MMP-9, MMP-9, MMP-9-ΔC; test: as above; set-up: species or system mouse
Method: as §1, §2, §3, §4, §5, §6

T1 sequence (P41245 20-730, stated change not applied): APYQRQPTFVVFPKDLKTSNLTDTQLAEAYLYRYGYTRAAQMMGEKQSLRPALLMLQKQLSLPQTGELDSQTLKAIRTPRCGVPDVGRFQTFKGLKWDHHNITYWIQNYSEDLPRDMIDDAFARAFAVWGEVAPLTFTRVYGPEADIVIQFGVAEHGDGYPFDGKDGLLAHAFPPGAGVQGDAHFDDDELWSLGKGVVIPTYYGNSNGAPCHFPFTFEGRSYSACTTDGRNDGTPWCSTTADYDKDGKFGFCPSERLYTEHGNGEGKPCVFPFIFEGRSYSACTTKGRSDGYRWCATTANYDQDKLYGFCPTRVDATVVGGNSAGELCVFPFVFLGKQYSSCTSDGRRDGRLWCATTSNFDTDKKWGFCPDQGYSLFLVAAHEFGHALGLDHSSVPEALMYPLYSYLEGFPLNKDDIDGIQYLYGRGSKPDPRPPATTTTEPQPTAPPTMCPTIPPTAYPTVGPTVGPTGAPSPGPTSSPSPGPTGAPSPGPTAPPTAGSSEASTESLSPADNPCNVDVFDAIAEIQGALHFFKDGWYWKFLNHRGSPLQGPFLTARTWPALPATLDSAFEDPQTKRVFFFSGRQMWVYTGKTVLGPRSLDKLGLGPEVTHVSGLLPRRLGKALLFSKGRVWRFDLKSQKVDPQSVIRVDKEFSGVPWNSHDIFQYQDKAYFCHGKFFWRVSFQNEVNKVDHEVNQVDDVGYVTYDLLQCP

- affinity of pro-MMP-9 for CLU relative to the other forms of MMP-9 ([1]; band densities, Image J): at least 10 times
- binding of C-terminal truncated MMP-9 to His-tagged CLU ([2]; 150 mM NaCl binding buffer): did not
- binding of MMP-9 to His-tagged CLU (bound vs input) ([2]; 150 mM NaCl binding buffer): highly enriched in the bound sample
B1: CLU: secreted disulfide-linked heterodimeric glycoprotein (70-80 KD); assays used recombinant mouse CLU with C-terminal (His)6 (protein, UniProt Q06890 22-448, looked up)
Clusterin: EQEVSDNELQELSTQGSRYINKEIQNAVQGVKHIKTLIEKTNAERKSLLNSLEEAKKKKEDALEDTRDSEMKLKAFPEVCNETMMALWEECKPCLKHTCMKFYARVCRSGSGLVGQQLEEFLNQSSPFYFWMNGDRIDSLLESDRQQSQVLDAMQDSFARASGIIDTLFQDRFFARELHDPHYFSPIGFPHKRPHFLYPKSRLVRSLMSPSHYGPPSFHNMFQPFFEMIHQAQQAMDVQLHSPAFQFPDVDFLREGEDDRTVCKEIRRNSTGCLKMKGQCEKCQEILSVDCSTNNPAQANLRQELNDSLQVAERLTEQYKELLQSFQSKMLNTSSLLEQLNDQFNWVSQLANLTQGEDKYYLRVSTVTTHSSDSEVPSRVTEVVVKLFDSDPITVVLPEEVSKDNPKFMDTVAEKALQEYRRKSRAE
modifications: C-terminal His6 tag
- sensitivity of pro-MMP-9 affinity for CLU to detergent concentration ([1]; 0.002% vs 0.04% Brij 35): not sensitive to the detergent concentration
- binding of MMP-9 and MMP-9-ΔC to CLU at high detergent ([2]; 0.04% Brij 35): do not bind to CLU at the high Brij 35 concentration
